Experimental data: the FLAb antibody collection (doi:10.7554/elife.23156)

B1: scFv; the commonest letter at each place (parent)
chain 1: EVKLDETGGGLVQPGRPMKLSCVASGFTFSDYWMNWVRQSPEKGLEWVAQIRNKPYNYETYYSDSVKGRFTISRDDSKSSVYLQMNNLRVEDMGIYYCTGSYYGMDYWGQGTSVTVS
chain 2: DVVMTQTPLSLPVSLGDQASISCRSSQSLVHSNGNTYLRWYLQKPGQSPKVLIYKVSNRFSGVPDRFSGSGSGTDFTLKISRVEAEDLGVYFCSQSTHVPWTFGGGTKLEIK

Columns and labels:
fluorescein = variants of: B1; test: Kd (Tite-Seq); settings: with fluorescein; format: scFv 4-4-20, heavy + light
[1] = variants of: B1; test: yeast surface expression (ratio to wild type); higher = more expressed; settings: format: scFv 4-4-20, heavy + light

Variant	Kd (fluorescein) [µM]	yeast surface expression [1]
chain 1 Y103I M105W	0.0146	0.528
chain 1 M34R W36P	≥ 10	1.27
chain 1 T28N V37Y	≥ 10	1.05
chain 1 Y102W G109P	≥ 10	0.245
chain 1 G104C M105P	≥ 10	0.256
chain 1 G100F Y102D	≥ 10	0.974
chain 1 S30A V37R	0.00871	1.16
chain 1 N35C W36F	≥ 10	0.644
chain 1 D31Q Y32R V37Q	≥ 10	0.133
chain 1 S30I D31T W36P	≥ 10	0.928
chain 1 G100R W108Y	≥ 10	0.478
chain 1 F29I S30R D31E	0.228	0.688
chain 1 D31H N35G	0.00468	0.736
chain 1 D31T V37S	≥ 10	0.269
chain 1 D31T V37W	6.61	0.726
chain 1 T28K V37R	0.195	2.19
chain 1 S30W Y32Q	≥ 10	0.646
chain 1 F29Y Y32R	≥ 10	0.761
chain 1 F29Y Y32A	0.00708	1.02
chain 1 D106H G109K	≥ 10	0.265
chain 1 D31I Y32F	≥ 10	0.369
chain 1 M105D D106G	≥ 10	0.347
chain 1 S30R N35F	≥ 10	0.413
chain 1 T28E S30V	0.0015	0.928

Variant	Kd (fluorescein) [µM]	yeast surface expression [1]
chain 1 Y103S D106H	≥ 10	0.542
chain 1 Y103S D106K	≥ 10	0.311
chain 1 S101C G104V D106F	≥ 10	0.361
chain 1 T28F S30T	0.00468	0.857
chain 1 W33E N35K	≥ 10	0.455
chain 1 Y32C	0.143	1.05
chain 1 Y32N	≥ 10	1.21
chain 1 T28A N35Y W36V	≥ 10	0.297
chain 1 T28A W33I	≥ 10	1.15
chain 1 Y102S Y103C	0.0125	0.707
chain 1 T28C D31F M34A	≥ 10	0.672
chain 1 Y103W D106K	≥ 10	0.245
chain 1 M34C N35L V37F	0.0657	0.501
chain 1 G100Q G109C	≥ 10	0.226
chain 1 Y102E G104E	≥ 10	0.934
chain 1 D31F V37E	≥ 10	0.257
chain 1 Y103Q G104N	≥ 10	0.905
chain 1 F29M D31Y W33Q	≥ 10	0.811
chain 1 G100D W108R	≥ 10	0.146
chain 1 S30Q W33S	≥ 10	0.902
chain 1 G104P	≥ 10	0.859
chain 1 G100R Y107N G109K	≥ 10	0.235
chain 1 W33Q W36V	≥ 10	0.361
chain 1 W36H V37E	≥ 10	0.267

Variant	Kd (fluorescein) [µM]	yeast surface expression [1]
chain 1 S101C G109A	≥ 10	0.363
chain 1 S101R G104T	≥ 10	0.647
chain 1 S101R G104P	≥ 10	0.361
chain 1 F29K	≥ 10	0.849
chain 1 F29N S30K	0.228	1.13
chain 1 F29Y N35H	≥ 10	0.732
chain 1 M34Y	0.0107	1.05
chain 1 M34I	0.00273	0.873
chain 1 D31H W33L	≥ 10	0.72
chain 1 Y102H Y103E	0.195	1.17
chain 1 T28Y Y32K	≥ 10	0.818
chain 1 Y32H W36F	0.676	0.839
chain 1 V37H	7.72	0.831
chain 1 G100N	≥ 10	0.668
chain 1 G100C	0.00162	0.893
chain 1 G100P	≥ 10	0.758
chain 1 Y32E M34I	≥ 10	0.733
chain 1 W33I M34F	≥ 10	1
chain 1 G104N D106W	≥ 10	0.316
chain 1 W33M M34I	≥ 10	0.708
chain 1 S30C	0.00128	0.906
chain 1 W36K	≥ 10	0.794
chain 1 Y32H N35T	≥ 10	0.813
chain 1 S101K Y102I	≥ 10	0.647

Variant	Kd (fluorescein) [µM]	yeast surface expression [1]
chain 1 Y103V G109L	≥ 10	0.247
chain 1 W33A V37W	≥ 10	0.625
chain 1 W33A V37N	≥ 10	0.49
chain 1 S101G W108R	≥ 10	0.436
chain 1 D31P W33F	≥ 10	0.78
chain 1 G100A W108Y	≤ 0.000316	0.892
chain 1 F29D W36H	≥ 10	0.505
chain 1 G100N G104N	≥ 10	0.347
chain 1 Y103N G109P	≥ 10	0.519
chain 1 Y102S Y107W	0.00128	0.747
chain 1 M34K N35S	≥ 10	1.46
chain 1 T28D W36Q	≥ 10	0.456
chain 1 Y103Q W108N	≥ 10	0.415
chain 1 T28S F29A	0.0624	0.957
chain 1 Y32A W36N	≥ 10	1.17
chain 1 T28N W33Y	≥ 10	1
chain 1 G104D G109V	≥ 10	0.266
chain 1 S101M G104W	≥ 10	0.278
chain 1 Y32W W33Y	≥ 10	0.945
chain 1 D31G V37N	0.00785	0.512
chain 1 N35T	≥ 10	0.879
chain 1 S30P W33P	≥ 10	0.628
chain 1 M105V W108H	≥ 10	0.493
chain 1 D31A V37K	0.382	0.623

Variant	Kd (fluorescein) [µM]	yeast surface expression [1]
chain 1 T28D F29T W36L	≥ 10	0.514
chain 1 D31R W36M V37G	0.79	3.04
chain 1 N35S V37L	≥ 10	0.839
chain 1 W33N V37N	≥ 10	0.652
chain 1 M105P W108E G109W	≥ 10	0.297
chain 1 Y107V W108R	≥ 10	0.492
chain 1 Y102W M105E	5.96	1.02
chain 1 Y102A D106S	0.0038	1.06
chain 1 D106N	0.00131	0.681
chain 1 D31P M34V	≥ 10	0.733
chain 1 Y32K M34F W36H	≥ 10	0.381
chain 1 G100I Y103E	≥ 10	0.879
chain 1 W33N N35M	≥ 10	0.792
chain 1 Y102P G104Y W108S	≥ 10	0.379
chain 1 Y103G W108F	0.00194	1.06
chain 1 T28E Y32R	0.0318	0.928
chain 1 T28Y W36M	≥ 10	0.486
chain 1 D31Y W33H	≥ 10	0.579
chain 1 S101G D106A	0.0457	0.675
chain 1 Y103N G104T Y107K	≥ 10	0.619
chain 1 S30N N35W	≥ 10	0.529
chain 1 S101W Y102Q W108A	≥ 10	0.239
chain 1 G100M G104P D106I	≥ 10	0.361
chain 1 M34N W36E	≥ 10	0.587

Variant	Kd (fluorescein) [µM]	yeast surface expression [1]
chain 1 Y103L D106H G109F	≥ 10	0.0981
chain 1 T28R Y32G	0.0132	0.959
chain 1 T28K M34K	6.96	0.284
chain 1 M34I N35Y V37Y	≥ 10	0.45
chain 1 G100W D106S W108L	≥ 10	0.243
chain 1 F29T Y32S W33H	≥ 10	0.659
chain 1 G109C	≥ 10	0.39
chain 1 G109A	0.0525	0.719
chain 1 S101Q G109S	≥ 10	0.645
chain 1 M105T Y107D	≥ 10	0.467
chain 1 W33K	≥ 10	0.699
chain 1 W33R	≥ 10	0.877
chain 1 M105L G109C	≥ 10	0.26
chain 1 S101R Y107I	≥ 10	0.812
chain 1 M34I V37M	0.00184	0.847
chain 1 M34I V37Q	0.00184	0.474
chain 1 T28M S30L	0.0107	0.725
chain 1 S101G M105A	≥ 10	0.988
chain 1 N35E V37Q	≥ 10	0.427
chain 1 M105A D106V	≥ 10	0.494
chain 1 F29L N35T	≥ 10	0.76
chain 1 Y102S	0.000869	1.14
chain 1 Y107F G109E	≥ 10	0.259
chain 1 W108C G109E	≥ 10	0.262

Variant	Kd (fluorescein) [µM]	yeast surface expression [1]
chain 1 S101N	≥ 10	0.886
chain 1 S101D	≥ 10	0.888
chain 1 F29T D31A	0.345	0.838
chain 1 D31L Y32H N35V	≥ 10	0.343
chain 1 Y103S G104N	≥ 10	1.04
chain 1 S101F M105I	≥ 10	0.522
chain 1 S101N M105P	≥ 10	0.537
chain 1 M34G W36M	≥ 10	1.94
chain 1 F29D D31E	≥ 10	1.01
chain 1 Y103E W108C	0.0221	0.758
chain 1 D31E W36Q	≥ 10	0.326
chain 1 D31E W36H	≥ 10	0.658
chain 1 S101L D106G	≥ 10	0.289
chain 1 Y102Q D106Y	≥ 10	0.268
chain 1 G104I M105S	≥ 10	0.592
chain 1 Y32M W33E	≥ 10	1.18
chain 1 S101Y D106K	≥ 10	0.117
chain 1 N35G V37K	≥ 10	0.46
chain 1 D31C M34P	≥ 10	0.56
chain 1 W33F N35F	≥ 10	0.3
chain 1 Y103T	2.35	0.896
chain 1 Y102H W108M	≤ 0.000316	0.91
chain 1 Y102T G104W	≥ 10	0.638
chain 1 M105F	0.945	0.745

Variant	Kd (fluorescein) [µM]	yeast surface expression [1]
chain 1 T28G W36N	≥ 10	0.456
chain 1 N35K V37K	6.96	0.0981
chain 1 G100Y Y107T	≥ 10	0.388
chain 1 Y32C M34Y	≥ 10	0.843
chain 1 M105Q D106S	0.0808	1.17
chain 1 M34T N35D	≥ 10	0.415
chain 1 Y32F V37I	0.0125	0.835
chain 1 S30W N35I	≥ 10	0.743
chain 1 S30D W36V V37L	≥ 10	0.433
chain 1 Y102W Y103W	2.88	0.645
chain 1 G100S M105Q D106N	≥ 10	0.522
chain 1 W36M V37S	≥ 10	0.415
chain 1 M34L N35P	≥ 10	1.48
chain 1 D31V M34R	0.195	0.17
chain 1 M105N G109Q	≥ 10	0.235
chain 1 M34P N35Q	≥ 10	0.194
chain 1 D31A W36M	≥ 10	0.551
chain 1 T28E M34S	0.0592	0.742
chain 1 F29P S30Y	0.0221	0.751
chain 1 D31N Y32M	0.00672	0.945
chain 1 D106Q W108G	≥ 10	0.384
chain 1 G100F W108A	≥ 10	0.671
chain 1 Y32E W33K	≥ 10	0.742
chain 1 F29C D31Y	≥ 10	0.522

Variant	Kd (fluorescein) [µM]	yeast surface expression [1]
chain 1 D31A W33L	≥ 10	0.534
chain 1 Y32F W33Y	≥ 10	0.757
chain 1 G100V Y107N G109P	≥ 10	0.341
chain 1 F29H V37R	0.00707	
chain 1 Y102H D106G	≥ 10	0.856
chain 1 Y102H D106I	≥ 10	0.595
chain 1 M105N Y107I	≥ 10	1.2
chain 1 G100T Y103E	≥ 10	1.28
chain 1 S30T M34E	0.345	0.314
chain 1 W108A G109C	≥ 10	0.197
chain 1 T28W Y32W	≥ 10	0.65
chain 1 S101I Y107K	≥ 10	0.29
chain 1 T28I Y32C	2.23	0.946
chain 1 T28S W33F	1.02	0.903
chain 1 W108S G109S	5.96	0.37
chain 1 Y102Q Y107C	≥ 10	0.353
chain 1 F29H W36Q	≥ 10	0.693
chain 1 G104D M105L	≥ 10	1.07
chain 1 S101M G109W	≥ 10	0.231
chain 1 W33H V37F	≥ 10	0.859
chain 1 F29M W36V	≥ 10	0.782
chain 1 S30P V37S	0.000939	0.74
chain 1 G104N Y107K	≥ 10	0.64
chain 1 T28C S30K	0.00104	0.943

Variant	Kd (fluorescein) [µM]	yeast surface expression [1]
chain 1 S101G Y103C	≥ 10	0.678
chain 1 G100N D106N	≥ 10	0.287
chain 1 W108F	≤ 0.000316	0.644
chain 1 M34P W36N	≥ 10	0.506
chain 1 F29N M34A	≥ 10	0.918
chain 1 Y103L G109M	≥ 10	0.208
chain 1 S30H D31H	0.00175	0.746
chain 1 S101Y G109K	≥ 10	0.212
chain 1 G100Y M105R	≥ 10	0.513
chain 1 W33T M34S V37E	≥ 10	0.787
chain 1 F29T M34S	≥ 10	0.649
chain 1 D31T W33E	≥ 10	0.544
chain 1 G104T D106T Y107L	≥ 10	0.547
chain 1 S101V Y107H	≥ 10	0.556
chain 1 D31S M34I	0.004	0.757
chain 1 Y107R W108N	≥ 10	0.495
